Results from article doi:10.1101/444570 (bioRxiv, 2018).

Key:
[1] = biological target: COMA complex (Ame1/Okp1/Ctf19/Mcm21) (S. cerevisiae (budding yeast), UniProt P38313;P53298;Q02732;Q06675); test: cross-linking
[2] = biological target: Ctf19/Mcm21 heterodimer (wild type) (S. cerevisiae (budding yeast), UniProt Q02732;Q06675); test: pull-down
Ctf19/Mcm21 heterodimer (wild type), sequence (Q02732 whole entry, chain 1 of 2): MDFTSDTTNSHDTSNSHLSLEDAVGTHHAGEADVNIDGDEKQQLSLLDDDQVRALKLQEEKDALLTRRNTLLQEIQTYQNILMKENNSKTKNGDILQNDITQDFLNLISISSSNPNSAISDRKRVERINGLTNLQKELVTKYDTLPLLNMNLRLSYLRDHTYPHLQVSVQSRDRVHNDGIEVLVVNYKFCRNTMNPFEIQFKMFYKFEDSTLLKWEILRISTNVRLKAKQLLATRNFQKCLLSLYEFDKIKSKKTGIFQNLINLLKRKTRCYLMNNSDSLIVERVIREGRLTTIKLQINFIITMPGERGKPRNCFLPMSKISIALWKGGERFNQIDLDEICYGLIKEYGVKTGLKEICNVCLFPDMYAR
Ctf19/Mcm21 heterodimer (wild type), sequence (Q06675 whole entry, chain 2 of 2): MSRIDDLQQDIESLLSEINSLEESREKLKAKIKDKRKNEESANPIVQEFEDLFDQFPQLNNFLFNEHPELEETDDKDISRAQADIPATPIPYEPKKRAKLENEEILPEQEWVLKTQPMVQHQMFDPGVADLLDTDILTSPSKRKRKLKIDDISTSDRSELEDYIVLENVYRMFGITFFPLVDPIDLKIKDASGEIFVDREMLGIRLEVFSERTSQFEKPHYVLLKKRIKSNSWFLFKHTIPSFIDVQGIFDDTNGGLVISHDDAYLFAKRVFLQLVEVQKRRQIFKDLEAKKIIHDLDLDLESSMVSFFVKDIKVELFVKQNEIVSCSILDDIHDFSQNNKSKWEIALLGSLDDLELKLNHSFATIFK

COMA complex (Ame1/Okp1/Ctf19/Mcm21), sequence (P38313 whole entry, chain 1 of 4): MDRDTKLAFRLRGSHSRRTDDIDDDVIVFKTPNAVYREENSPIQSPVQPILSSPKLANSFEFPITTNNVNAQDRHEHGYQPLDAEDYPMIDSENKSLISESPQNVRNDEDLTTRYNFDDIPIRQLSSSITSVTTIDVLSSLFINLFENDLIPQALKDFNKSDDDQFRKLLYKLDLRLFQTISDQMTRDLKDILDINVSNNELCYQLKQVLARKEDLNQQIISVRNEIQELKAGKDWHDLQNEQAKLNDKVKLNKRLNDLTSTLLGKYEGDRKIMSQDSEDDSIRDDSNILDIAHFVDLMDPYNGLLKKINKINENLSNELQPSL
COMA complex (Ame1/Okp1/Ctf19/Mcm21), sequence (P53298 whole entry, chain 2 of 4): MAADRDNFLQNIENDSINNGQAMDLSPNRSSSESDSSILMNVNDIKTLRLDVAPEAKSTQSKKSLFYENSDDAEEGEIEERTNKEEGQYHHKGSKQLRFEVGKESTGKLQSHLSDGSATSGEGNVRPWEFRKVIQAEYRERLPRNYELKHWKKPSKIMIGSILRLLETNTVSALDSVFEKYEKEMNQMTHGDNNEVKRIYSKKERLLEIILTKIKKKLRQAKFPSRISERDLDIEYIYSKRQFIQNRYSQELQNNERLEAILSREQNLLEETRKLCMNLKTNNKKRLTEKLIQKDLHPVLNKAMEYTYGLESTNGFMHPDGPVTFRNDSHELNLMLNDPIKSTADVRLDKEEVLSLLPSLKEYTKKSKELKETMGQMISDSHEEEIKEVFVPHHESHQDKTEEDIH
COMA complex (Ame1/Okp1/Ctf19/Mcm21), sequence (Q02732 whole entry, chain 3 of 4): as the sequence (Q02732 whole entry, chain 1 of 2) above
COMA complex (Ame1/Okp1/Ctf19/Mcm21), sequence (Q06675 whole entry, chain 4 of 4): as the sequence (Q06675 whole entry, chain 2 of 2) above

Binder | binding result [1] | binding result [2]
Sli15-2xStrep/Ipl1 (wild type, not phosphorylated) (complex) chain 1: MDWAIKAARKKTQRKPGSTRSIIETLDDLNNLTTDAHSEINQRLYESSEWLRNNVYMNTLKYEDKKMEESLISPENTHNKMDVEFPKMKGEYELSNSQNDAAKDVTKTPRNGLHNDKSITPKSLRRKEVTEGMNRFSIHDTNKSPVEPLNSVKVDANESEKSSPWSPYKVEKVLRESSKTSESPINTKRFDNQTWAAKEEMENEPILQALKKAESVKVKPPPNSGIARSQRRSNMFVPLPNKDPLIIQHIPPTKSSGSIPKVRTVKESPIAFKKKSTINSPAIRAVENSDTAGSTKASSVFDRLSSIPTKSFENKISRGNVGHKYSSSSIDLTGSPMKKVSQKFKSINSTDTDMQEALRDIFSVKNKITKNNSPKGKNSRKSSIPRFDKTSLKLTTHKKLAIIAEQKKKSKHSSDVHKTGSRPHSISPTKISVDSSSPSKEVKNYYQSPVRGYLRPTKASISPNKNKNLTTSQTPHRLKIKEKTLRKLSPNIADISKPESRKSKNYRLTNLQLLPPAEAERDDLKKKFDKRLSGIMRSQQEHHRRKQEKQKRMSHLEQDLKKQTSFSNDYKDIRLKESLAPFDNHVRDTINKNTAFSTDNILATINTVDHREIIGNVTPKIASVNDSLPEINTDSEDEASVTLAAWAKSPYLQEQLIRQQDINPQTIFGPIPPLHTDEIFPNPRLNRLKPRQIVPKRS chain 2: MQRNSLVNIKLNANSPSKKTTTRPNTSRINKPWRISHSPQQRNPNSKIPSPVREKLNRLPVNNKKFLDMESSKIPSPIRKATSSKMIHENKKLPKFKSLSLDDFELGKKLGKGKFGKVYCVRHRSTGYICALKVMEKEEIIKYNLQKQFRREVEIQTSLNHPNLTKSYGYFHDEKRVYLLMEYLVNGEMYKLLRLHGPFNDILASDYIYQIANALDYMHKKNIIHRDIKPENILIGFNNVIKLTDFGWSIINPPENRRKTVCGTIDYLSPEMVESREYDHTIDAWALGVLAFELLTGAPPFEEEMKDTTYKRIAALDIKMPSNISQDAQDLILKLLKYDPKDRMRLGDVKMHPWILRNKPFWENKRL | binds | –
Sli15∆N2-370-2xStrep/Ipl1 (complex) chain 1: MNNSPKGKNSRKSSIPRFDKTSLKLTTHKKLAIIAEQKKKSKHSSDVHKTGSRPHSISPTKISVDSSSPSKEVKNYYQSPVRGYLRPTKASISPNKNKNLTTSQTPHRLKIKEKTLRKLSPNIADISKPESRKSKNYRLTNLQLLPPAEAERDDLKKKFDKRLSGIMRSQQEHHRRKQEKQKRMSHLEQDLKKQTSFSNDYKDIRLKESLAPFDNHVRDTINKNTAFSTDNILATINTVDHREIIGNVTPKIASVNDSLPEINTDSEDEASVTLAAWAKSPYLQEQLIRQQDINPQTIFGPIPPLHTDEIFPNPRLNRLKPRQIVPKRS chain 2: MQRNSLVNIKLNANSPSKKTTTRPNTSRINKPWRISHSPQQRNPNSKIPSPVREKLNRLPVNNKKFLDMESSKIPSPIRKATSSKMIHENKKLPKFKSLSLDDFELGKKLGKGKFGKVYCVRHRSTGYICALKVMEKEEIIKYNLQKQFRREVEIQTSLNHPNLTKSYGYFHDEKRVYLLMEYLVNGEMYKLLRLHGPFNDILASDYIYQIANALDYMHKKNIIHRDIKPENILIGFNNVIKLTDFGWSIINPPENRRKTVCGTIDYLSPEMVESREYDHTIDAWALGVLAFELLTGAPPFEEEMKDTTYKRIAALDIKMPSNISQDAQDLILKLLKYDPKDRMRLGDVKMHPWILRNKPFWENKRL | – | binds
